This assay has as its target full length human TDP-43-turboGFP, in vitro translated (human, UniProt Q13148 1-414). The assay can be described thus: cell-based or functional assay.

The values that follow come from article PMC5678579, “Clusterin protects neurons against intracellular proteotoxicity” (Acta Neuropathologica Communications, 2017).

full length human TDP-43-turboGFP, in vitro translated, sequence (Q13148 whole entry): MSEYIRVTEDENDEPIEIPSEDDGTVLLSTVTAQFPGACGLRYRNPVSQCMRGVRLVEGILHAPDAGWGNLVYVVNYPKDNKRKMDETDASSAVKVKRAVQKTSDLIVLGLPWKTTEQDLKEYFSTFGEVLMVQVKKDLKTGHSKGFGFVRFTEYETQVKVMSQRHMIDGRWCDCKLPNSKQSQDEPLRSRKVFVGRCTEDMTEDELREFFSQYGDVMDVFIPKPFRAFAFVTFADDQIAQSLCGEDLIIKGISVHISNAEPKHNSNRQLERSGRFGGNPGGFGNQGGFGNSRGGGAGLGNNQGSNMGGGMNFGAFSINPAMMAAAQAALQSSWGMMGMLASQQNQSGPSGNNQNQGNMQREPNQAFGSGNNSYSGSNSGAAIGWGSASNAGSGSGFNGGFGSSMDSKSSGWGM

B1: clusterin (CLU) purified from human plasma (natural protein)
chain 1: DQTVSDNELQEMSNQGSKYVNKEIQNAVNGVKQIKTLIEKTNEERKTLLSNLEEAKKKKEDALNETRESETKLKELPGVCNETMMALWEECKPCLKQTCMKFYARVCRSGSGLVGRQLEEFLNQSSPFYFWMNGDRIDSLLENDRQQTHMLDVMQDHFSRASSIIDELFQDRFFTREPQDTYHYLPFSLPHRRPHFFFPKSRIVR
chain 2: SLMPFSPYEPLNFHAMFQPFLEMIHEAQQAMDIHFHSPAFQHPPTEFIREGDDDRTVCREIRHNSTGCLRMKDQCDKCREILSVDCSTNNPSQAKLRRELDESLQVAERLTRKYNELLKSYQWKMLNTSSLLEQLNEQFNWVSRLANLTQGEDQYYLRVTTVASHTSDSDVPSGVTEVVVKLFDSDPITVTVPVEVSRKNPKFMETVAEKALQEYRKKHREE
B1: the “soluble TDP-43-tGFP left after 4 h at 37 °C with 43 nM CLU, against 43 nM BSA (Western blot of the supernatant, densitometry)” value was 8 fold.
